Where no end group is shown, it is not given here.
T1: Hdm2 peptide, residues 275-289 of SEQ ID NO:8 (H2 segment) (human)
T1 construct: also called H2 peptide; one from the H2 segment
T1 peptide: Ac-VYQVTVYQAGESDTD-NH2

B1: mouse Arf motif peptide A1 (1-14) (peptide)
peptide: Ac-MGRRFLVTVRIQRA-NH2
notes: the peptide tested spans 1-14; also called mouse A1
B2: human p14Arf peptide, residues 16-30 (contains the human A2 motif) (peptide)
peptide: Ac-GPPRVRVFVVHIPRL-NH2
notes: the peptide tested is the 15-mer 16-30; also called fourth peptide of the human library; human A2 (16-30)
B3: human Arf motif peptide A1 (1-14) (peptide)
peptide: Ac-MVRRFLVTLRIRRA-NH2
notes: the peptide tested spans 1-14; also called human A1
B4: mouse Arf motif peptide A2 (16-30) (peptide)
peptide: Ac-RPLQERVFLVKFVRS-NH2
notes: Same limits as the fourth peptide of the mouse library, so possibly a member of group m12; also called mouse A2
B5: mArfN37 (N-terminal fragment of mouse p19Arf, residues 1-37, His tag cleaved) (peptide)
chain: MGRRFLVTVRIQRAGRPLQERVFLVKFVRSRRPRTAS
modifications: not fully specified
notes: Tag-cleaved form used in CD, NMR and gel filtration; also called 15N-mArfN37
B6: 41-55 (mouse Arf peptide) (peptide)
peptide: Ac-AFVNMLLRLERILRR-NH2
notes: also called mouse p19Arf library peptide, residues 41-55
B7: 1-15 (mouse Arf peptide) (peptide)
peptide: Ac-MGRRFLVTVRIQRAG-NH2
notes: also called mouse p19Arf library peptide, residues 1-15
B8: 21-35 (mouse Arf peptide) (peptide)
peptide: Ac-RVFLVKFVRSRRPRT-NH2
notes: also called mouse p19Arf library peptide, residues 21-35
B9: 11-25 (mouse Arf peptide) (peptide)
peptide: Ac-IQRAGRPLQERVFLV-NH2
notes: also called mouse p19Arf library peptide, residues 11-25
B10: mouse p19Arf library peptide, residues 31-45 (contains the NoLS RRPR) (peptide)
peptide: Ac-RRPRTASCALAFVNM-NH2
B11: 26-40 (mouse Arf peptide) (peptide)
peptide: Ac-KFVRSRRPRTASCAL-NH2
notes: also called mouse p19Arf library peptide, residues 26-40
B12: 6-20 (mouse Arf peptide) (peptide)
peptide: Ac-LVTVRIQRAGRPLQE-NH2
notes: also called mouse p19Arf library peptide, residues 6-20

Target: T1, Hdm2 peptide, residues 275-289 of SEQ …
Assay: CD titration, failure to induce structure

| Binder | binding result |
| --- | --- |
| B1 | no binding (tested: 1-10 µM (concentrations used)) |
| B2 | no binding (tested: 1-10 µM (concentrations used)) |
| B3 | no binding (tested: 1-10 µM (concentrations used)) |
| B4 | no binding (tested: 1-10 µM (concentrations used)) |

target: T2, His-tagged Hdm2 210-304 (human, UniProt Q00987 210-304); assay: SPR, His-tagged Hdm2 210-304 captured by anti-His antibody, peptide injected 10 min, signal minus reference cell [b]
T2 construct: Captured on the C-1 chip by anti-His antibody for the Arf peptide library SPR; Tag placed first here
Procedure: (§1) Reactive sites remaining on the surface were blocked by reaction with ethanolamine. The His-tagged ligand was attached to the antibody by injecting a 5-10 μg/ml solution of the ligand in 10 mM HEPES, 150 mM NaCl, pH 7.4 (HBS-N buffer, Biacore) at a flow rate of 10 μL/min through the flow cell. A reference cell was prepared similarly except that no His-tagged ligand was added. Binding was measured by flowing the non-His-tagged analyte through the reference and ligand-containing flow cells in sequence. Prior to injection of ligands, the chip surfaces were equilibrated in HBS-N buffer. Changes in the SPR response due to solvent differences and the injection process were monitored by injection of HBS-N buffer alone. Regeneration of the chip surface to remove bound analyte and ligand was accomplished by two 100 μL injections of 10 mM glycine, pH 2.0 through both flow cells. Data reported is the difference in SPR signal between the flow cell containing analyte and the reference cell. Duplicate injections were made and the SPR response values reported are the average of these two injections.
(§2) Two libraries of peptides 15 amino acids in length were synthesized based on the sequence of exon 1β of mouse p19^Arf and the entire sequence of human p14^Arf. The sequence for the first peptide in each library corresponded to the first 15 amino acids of the protein sequences. […] This approach yielded two libraries of overlapping peptides spanning mouse p19^Arf residues 1-64 and human p14^Arf residues 1-132. The ability of these peptides to bind Hdm2 fragments was determined using the surface plasmon resonance (SPR) technique with a Biacore 3000 instrument. […] Library peptides were allowed to flow over the Hdm2 surface, or over a control surface lacking an Hdm2 fragment.

T2 sequence (Q00987 210-304): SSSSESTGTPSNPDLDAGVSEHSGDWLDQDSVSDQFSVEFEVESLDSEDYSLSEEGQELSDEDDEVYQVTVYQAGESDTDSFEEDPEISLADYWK

| binding result | Binder |
| --- | --- |
| binds | B2 |

target: T3, Hdm2 210-275 (residues 210-275 of SEQ ID NO:8, His tag cleaved) (human, UniProt Q00987 210-275); assay: CD titration, ellipticity at 200 nm
Procedure: (§3) Further, saturable binding is also observed when the Hdm2 fragments were added to an excess of mArfN37.

T3 sequence (Q00987 210-275): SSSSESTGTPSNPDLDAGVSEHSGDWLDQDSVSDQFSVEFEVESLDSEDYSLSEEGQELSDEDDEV

| Kd [µM] | Binder |
| --- | --- |
| < 5 | B5 |

target: T4, Hdm2 210-304 (residues 210-304 of SEQ ID NO:8, His tag cleaved) (human, UniProt Q00987 210-304); assay: CD titration, ellipticity at 200 nm
T4 construct: Non-His-tagged analyte in SPR; also used in CD, NMR, gel filtration
Procedure: as §3

T4 sequence (Q00987 210-304): as the sequence (Q00987 210-304) above

| Kd [µM] | Binder |
| --- | --- |
| < 5 | B5 |

target: T3, Hdm2 210-275 (residues 210-275 of SEQ …); assay: CD-based binding assay

| binding result | Binder |
| --- | --- |
| binds | B1 |
| no binding | B2 |
| binds | B3 |
| no binding | B4 |

target: T4, Hdm2 210-304 (residues 210-304 of SEQ …); assay: CD-based binding assay

| binding result | Binder |
| --- | --- |
| binds | B1 |
| binds | B2 |
| binds | B3 |
| binds | B4 |

target: T2, His-tagged Hdm2 210-304; assay: SPR, His-tagged Hdm2 210-304 captured by anti-His antibody, peptide injected 10 min, signal minus reference cell [a]
Procedure: as §1, §2

| binding result | Binder |
| --- | --- |
| no binding | B6 |
| binds | B7 |
| binds | B8 |
| no binding | B9 |
| binds | B10 |
| binds | B11 |
| binds | B4 |
| binds | B12 |
